Here are results for seven molecules from patent US20170081400A1 (CEPHALON, published 2017).

Assay [1] deals with T1, human TL1A extracellular domain with N-terminal HIS and FLAG tag (human) (UniProt O95150).
T1 sequence: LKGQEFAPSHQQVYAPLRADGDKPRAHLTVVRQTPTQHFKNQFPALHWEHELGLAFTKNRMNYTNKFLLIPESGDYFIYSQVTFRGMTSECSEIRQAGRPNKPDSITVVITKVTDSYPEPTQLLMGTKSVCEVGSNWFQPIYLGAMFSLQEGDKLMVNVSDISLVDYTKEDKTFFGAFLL
The experiment in a line: cell-based or functional assay.

Assay [2] has as its target T2, human TL1A extracellular domain with N-terminal HIS and FLAG tag (human, UniProt O95150 72-251).
T2 construct: whole entry named. ~70 kDa fraction purified by gel filtration
T2 sequence: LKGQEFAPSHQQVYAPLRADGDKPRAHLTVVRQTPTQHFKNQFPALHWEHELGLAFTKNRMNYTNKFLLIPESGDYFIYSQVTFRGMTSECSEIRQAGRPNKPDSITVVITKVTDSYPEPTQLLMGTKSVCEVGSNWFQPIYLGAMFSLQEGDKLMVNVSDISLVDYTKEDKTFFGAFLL
Put plainly: SPR run 3; supernatant on Protein A; TL1A 10 ug/mL; timepoint 59. The source says:
(§1) 1.5. Antibody expression and antigen binding as determined by SPR. Using a CM5 sensor chip (GE Healthcare) Protein A (Pierce) was coupled to the chip surface using an amine coupling kit (GE Healthcare). Protein A was coupled on flow cell 1 and 2 (or alternatively 3 and 4) using a BIACORE® T200. […] The amount of supernatant or purified protein (as well as the concentration) injected during the capture stage varied between runs and is specified in the header of the Tables 3-11. At the end of injection of the supernatant or purified antibody the change in response units was measured. This value was reported as Capture Level in Tables 3-11. […] The response units were measured prior to the end of the dissociation phase. […] The sensorgrams were double referenced (flow cell 2 is subtracted from flow cell 1 and a buffer blank). As there were a large number of antibody variants to screen, these were screened across different runs (Tables 3-11). […] A summary of the conditions used in each run is below:
(§2) 2.1. […] In some experiment the antibodies were purified using Protein A chromatography (See 1.4) and purified antibodies were used in BIACORE® (GE Healthcare) experiments.

The target in assay [3] is T2, human TL1A extracellular domain with …. Put plainly: SPR run 3; supernatant on Protein A; TL1A 10 ug/mL; timepoint 590.
Excerpt: as §1, §2

B1: 320-263 (antibody, human IgG1, name in Kabat numbering, V domains shown)
VH: QVQLVQSGAEVKKPGASVKVSCKASGYTFTSYDINWVRQAPGQGLEWMGWLNPNSGNTGYAQKFQGRVTMTADRSTSTAYMELSSLRSEDTAVYYCAREVPETAAFEYWGQGTLVTVSS
VL: QSVLTQPPSVSGAPGQRVTISCTSSSSDIGKGLGVHWYQQLPGTAPKLLIEGYYNRPSGVPDRFSGSKSGTSASLTITGLLPEDEGDYYCQSYDGTLSALFGGGTKLTVLG
notes: human IgG1, lambda
In assay [1], B1 came in with an Antibody IC50, TL1A induced caspase potency assay in TF-1 cells of 3 ng/mL and a Fold improvement over 320-179, TL1A induced caspase potency assay in TF-1 cells of 3 fold. The “TL1A Binding Level (Early)” value in assay [2] was 121 RU. The “TL1A Binding Level (Late)” value in assay [3] came out at 123 RU.

B2: 320-278 (antibody, human IgG1, V domains shown)
VH: QVQLVQSGAEVKKPGASVKVSCKASGYTFTSYDINWVRQAPGQGLEWMGWLNPNSGNTGYAQKFQGRVTMTADRSTSTAYMELSSLRSEDTAVYYCAREVPETAAFEYWGQGTLVTVSS
VL: QSVLTQPPSVSGAPGQRVTISCTSSSSDIGAGQGVHWYQQLPGTAPKLLIEGYYNRPSGVPDRFSGSKSGTSASLTITGLLPEDEGDYYCQSYDGTLSALFGGGTKLTVLG
notes: human IgG1, lambda
For the molecule B2, the “TL1A Binding Level (Early)” value in assay [2] is 389 RU. For the same molecule, the “TL1A Binding Level (Late)” value in assay [3] amounted to 374 RU.

B3: 320-267 (antibody, human IgG1, V domains shown)
VH: QVQLVQSGAEVKKPGASVKVSCKASGYTFTSYDINWVRQAPGQGLEWMGWLNPNSGNTGYAQKFQGRVTMTADRSTSTAYMELSSLRSEDTAVYYCAREVPETAAFEYWGQGTLVTVSS
VL: QSVLTQPPSVSGAPGQRVTISCTSSSSDIGAALGVHWYQQLPGTAPKLLIEGYYNRPSGVPDRFSGSKSGTSASLTITGLLPEDEGDYYCQSYDGTLSALFGGGTKLTVLG
notes: human IgG1, lambda
For B3, in assay [2], the “TL1A Binding Level (Early)” value came out at 299 RU. In addition, the “TL1A Binding Level (Late)” value in assay [3] worked out at 297 RU.

B4: 320-310 (antibody, human IgG1, name in Kabat numbering, V domains shown)
VH: QVQLVQSGAEVKKPGASVKVSCKASGYTFTSYDINWVRQAPGQGLEWMGWLNPNSGNTGYAQKFQGRVTMTADRSTSTAYMELSSLRSEDTAVYYCAREVPETAAFEYWGQGTLVTVSS
VL: QSVLTQPPSVSGAPGQRVTISCTSSSSDIGAGLGVHWYQQLPGTAPKLLIEGYYNRPSGVPDRFSGSKSGTSASLTITGLLPEDEGDYYCASYDGTLSALFGGGTKLTVLG
notes: human IgG1, lambda
Consider B4, for which, in assay [2], the “TL1A Binding Level (Early)” value was determined as 70 RU. The “TL1A Binding Level (Late)” value in assay [3] came to 62 RU.

B5: 320-308 (antibody, human IgG1, name in Kabat numbering, V domains shown)
VH: QVQLVQSGAEVKKPGASVKVSCKASGYTFTSYDINWVRQAPGQGLEWMGWLNPNSGNTGYAQKFQGRVTMTADRSTSTAYMELSSLRSEDTAVYYCAREVPETAAFEYWGQGTLVTVSS
VL: QSVLTQPPSVSGAPGQRVTISCTSSSSDIGAGLGVWWYQQLPGTAPKLLIEGYYNRPSGVPDRFSGSKSGTSASLTITGLLPEDEGDYYCQSYDGTLSALFGGGTKLTVLG
notes: human IgG1, lambda
Take B5: in assay [2], the “TL1A Binding Level (Early)” value stood at 106 RU. Also, the “TL1A Binding Level (Late)” value in assay [3] stood at 73 RU.

B6: 320-309 (antibody, human IgG1, name in Kabat numbering, V domains shown)
VH: QVQLVQSGAEVKKPGASVKVSCKASGYTFTSYDINWVRQAPGQGLEWMGWLNPNSGNTGYAQKFQGRVTMTADRSTSTAYMELSSLRSEDTAVYYCAREVPETAAFEYWGQGTLVTVSS
VL: QSVLTQPPSVSGAPGQRVTISCTSSSSDIGAGLGVYWYQQLPGTAPKLLIEGYYNRPSGVPDRFSGSKSGTSASLTITGLLPEDEGDYYCQSYDGTLSALFGGGTKLTVLG
notes: human IgG1, lambda
Turning to B6, the “TL1A Binding Level (Early)” value in assay [2] came out at 47 RU. Further, in assay [3], the “TL1A Binding Level (Late)” value was 40 RU.

B7: 320-277 (antibody, human IgG1, V domains shown)
VH: QVQLVQSGAEVKKPGASVKVSCKASGYTFTSYDINWVRQAPGQGLEWMGWLNPNSGNTGYAQKFQGRVTMTADRSTSTAYMELSSLRSEDTAVYYCAREVPETAAFEYWGQGTLVTVSS
VL: QSVLTQPPSVSGAPGQRVTISCTSSSSDIGAGSGVHWYQQLPGTAPKLLIEGYYNRPSGVPDRFSGSKSGTSASLTITGLLPEDEGDYYCQSYDGTLSALFGGGTKLTVLG
notes: human IgG1, lambda
Turning to B7, in assay [2], the “TL1A Binding Level (Early)” value is 387 RU. For the same molecule, in assay [3], the “TL1A Binding Level (Late)” value was 361 RU.
